The values below come from patent US20230381329A1, “Zwitterion Polymer-Drug Conjugates” (University of Utah Research Foundation, priority 2022, published 2023).

Data set [1] concerns the target T1, recombinant human (rHu) insulin (Homo sapiens, UniProt P01308).
T1 construct: Insulin is a 51-residue protein
The data set is described as follows: Insulin aggregation assay (transmittance at 540 nm, continuous agitation at 37° C.). Type of data set: physicochemical.
Method: Insulin or calcitonin solutions were prepared in PBS at pH 7.4 at a final concentration of 1 mg/mL, and with and without the addition of 1.5 molar equivs of CB [7]-PMet for rHu insulin and 5 molar equivs for hCT. […] The plate was shaken continuously at 37° C. and absorbance readings at 540 nm were collected every 6 min the duration of the experiment as reported. Absorbance values were subsequently converted to transmittance. […]

For data set [2], the target named is T2, Human calcitonin (hCT) (Homo sapiens, UniProt P01258).
T2 construct: made in house; host or cells: chemical peptide synthesis (on resin)
T2 sequence (P01258 85-116): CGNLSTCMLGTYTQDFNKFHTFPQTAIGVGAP
Nature of the data set: Calcitonin aggregation assay (transmittance at 540 nm, 37° C.). Type of data set: physicochemical. As to conditions: for time stabilized against aggregation: with 5 molar equivs CB[7]-PMet^CM80, with agitation, 37° C.; for time stabilized against aggregation / aggregation behavior alone: FIG. 5C; for aggregation behavior alone: without CB[7]-PMet^CM80, PBS pH 7.4, 37° C.; for stabilization against aggregation: with CB[7]-PMet^CM80, FIG. 5C. As for the experimental part: Aggregation assay methods. Insulin aggregation assay. Insulin aggregation was assessed (Sluzky, V.; et al. Proc. Natl. Acad. Sci. U.S.A 1991, 88 (21), 9377-9381; and Webber, M. J.; et al. Proc. Natl. Acad. Sci. U.S.A 2016, 113 (50), 14189-14194). Insulin or calcitonin samples at pH 7.4 PBS and a final concentration of 1 mg/mL were prepared with and without the addition of 1.5 molar equivs of CB [7]-PMet. Samples were plated in a clear 96-well plate (Thermo Scientific Nunc) at a volume of 150 μL per well (n=5 wells/group) and sealed with an optically clear and thermally stable seal. The plate was immediately placed into a Tecan Infinite M200 plate reader and shaken continuously at 37° C. Absorbance readings at 540 nm were collected every 6 min the duration of the experiment as reported, and absorbance values were subsequently converted to transmittance.
Calcitonin aggregation assay. hCT and analogs were dissolved in PBS buffer, pH 7.4 and centrifuged at 3000 rpm for 3 min. The supernatant concentration was determined by nanodrop (6=1615 M^−1cm^−1 at 280 nm). hCT and analogs were prepared at a final concentration of 0.5 mg/mL with and without 5 eq of PMet^CM80-CB[7]. Samples were plated at 150 μL per well in a clear 96-well plate (Fisher Scientific Nunc) and sealed with optically clear and thermally stable sealing tape (VWR). The plate was immediately placed into the plate reader at 37° C. Absorbance readings at 540 nm were collected every 6 min with 60 s shaking between reads for […]. Absorbance values were subsequently converted to transmittance.
Aggregation assays. Peptide therapeutics were prepared (Meudom, R.; et al. Curr. Res. Chem. Biol. 2022, 2, 100013) and aggregation was assessed (Sluzky, V.; et al. Proc. Natl. Acad. Sci. U.S.A 1991, 88 (21), 9377-938; and Webber, M. J.; et al. Proc. Natl. Acad. Sci. U.S.A 2016, 113 (50), 14189-14194). Insulin or calcitonin solutions were prepared in PBS at pH 7.4 at a final concentration of 1 mg/mL, and with and without the addition of 1.5 molar equivs of CB [7]-PMet for rHu insulin and 5 molar equivs for hCT. Samples were plated in a clear 96-well plate (Thermo Scientific Nunc) at a volume of 150 μL per well (n=wells/group) and sealed with an optically clear and thermally stable seal. The plate was shaken continuously at 37° C. and absorbance readings at 540 nm were collected every 6 min the duration of the experiment as reported. Absorbance values were subsequently converted to transmittance.
Next, the stabilizing effects of CB[7]-PMet^CM80 on other aggregation-prone proteins was assessed. Human calcitonin (hCT, FIG. 5A) was selected as a model protein therapeutic. Since hCT lacks a terminal Phe for host-guest complexation, the N-terminal amine was selectively modified on-resin with a benzylic amine group using reductive amination chemistry (FIG. 5B). To optimize binding, two spacer lengths between the terminal amine and the benzyl ring were examined comprising either one or two methylene units (hCT A1 and A2, respectively). Aggregation behavior over 40 h was examined using the methods described herein, and with or without CB[7]-PMet^CM80. […] However, addition of CB[7]-PMet^CM80 stabilized hCT A2 for at least 40 h with agitation, while hCT A1 was stabilized for ca. 34 h.

Data set [3] has as its target T1, recombinant human (rHu) insulin. As to conditions: CB[7] alone, already shown; cited from earlier work.
In data set [4] the test system is Chinese hamster ovary cells. The settings on record: cited from earlier work.
For data set [5] the following is noted: mice, cited from earlier work.
In data set [6] the target is N-terminal phenylalanine residue on insulin (Homo sapiens, UniProt P01308). The settings on record: CB[7] macrocycle binding N-terminal phenylalanine of insulin; cited from earlier work.
Sequence of N-terminal phenylalanine residue on insulin (P01308 25-54 limits assumed): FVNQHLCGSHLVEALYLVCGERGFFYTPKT
Sequence of N-terminal phenylalanine residue on insulin (P01308 90-110 partner limits assumed): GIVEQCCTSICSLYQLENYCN

Read-outs that look alike come from different tables or passages of the source.

One may read the IC50 as the point on the concentration scale where inhibition reaches its midpoint.

T1 sequence (P01308 25-54 limits assumed): as the sequence (P01308 25-54 limits assumed) above

For the substance “rHu insulin: recombinant human insulin, SEQ ID NO: 1 and SEQ ID NO: 2 chains”, the “aggregation of rHu insulin alone” value in data set [1] (no additive, continuous agitation at 37° C., within the first few hours) is reported as “rapid aggregation”.

Turning to “hCT A1: benzyl-functionalized human calcitonin with one methylene spacer between the terminal amine and the benzyl ring”, in data set [2], the “time stabilized against aggregation” value was “ca. 34 h” and the aggregation behavior alone entry is “rapid aggregation”.

Turning to “hCT: Human calcitonin, SEQ ID NO: 3, H2N-CGNLSTCMLGTYTQDFNKFHTFPQTAIGVGAP”, in data set [2], the stabilization against aggregation result is recorded as “not stabilized” and the aggregation behavior alone entry is given as “rapid aggregation”.

Turning to “Poly-S-Carboxymethyl-L-Methionine Sulfonium Chloride Alkyne [PMetCM-Alk]”, the “inhibition of rHu insulin aggregation under continuous agitation” value in data set [1] (1 mg/mL insulin, PBS pH 7.4, 1.5 molar equivs additive, 37° C., 100 h, FIG. 3B) is given as “no inhibition”.

With “hCT A2: benzyl-functionalized human calcitonin with two methylene spacers between the terminal amine and the benzyl ring”, in data set [2], the “time stabilized against aggregation” value is “at least 40 h”, the stabilization against aggregation result is given as “resistance to aggregation” and the aggregation behavior alone result was “rapid aggregation”.

With cucurbit[7]uril [CB[7]], the “effect on rHu insulin stability” value in data set [3] was “no effect”. Further, the IC50 in data set [4] is 530 ± 20 µM. For the same substance, the tolerated dose entry in data set [5] (intravenous) is “up to 250 mg kg^−1”; in data set [5] (oral) it was ≤ 600 mg/kg. Besides, the Ka in data set [6] is 1.5e+06 M⁻¹.
